Assay results from CN114790245A.

Target: 血浆激肽释放酶(plasma kallikrein,PK) (human) (UniProt P03952)
Test: cell-based or functional assay

Sequence of UniProt P03952 (P03952 20-638 limits assumed): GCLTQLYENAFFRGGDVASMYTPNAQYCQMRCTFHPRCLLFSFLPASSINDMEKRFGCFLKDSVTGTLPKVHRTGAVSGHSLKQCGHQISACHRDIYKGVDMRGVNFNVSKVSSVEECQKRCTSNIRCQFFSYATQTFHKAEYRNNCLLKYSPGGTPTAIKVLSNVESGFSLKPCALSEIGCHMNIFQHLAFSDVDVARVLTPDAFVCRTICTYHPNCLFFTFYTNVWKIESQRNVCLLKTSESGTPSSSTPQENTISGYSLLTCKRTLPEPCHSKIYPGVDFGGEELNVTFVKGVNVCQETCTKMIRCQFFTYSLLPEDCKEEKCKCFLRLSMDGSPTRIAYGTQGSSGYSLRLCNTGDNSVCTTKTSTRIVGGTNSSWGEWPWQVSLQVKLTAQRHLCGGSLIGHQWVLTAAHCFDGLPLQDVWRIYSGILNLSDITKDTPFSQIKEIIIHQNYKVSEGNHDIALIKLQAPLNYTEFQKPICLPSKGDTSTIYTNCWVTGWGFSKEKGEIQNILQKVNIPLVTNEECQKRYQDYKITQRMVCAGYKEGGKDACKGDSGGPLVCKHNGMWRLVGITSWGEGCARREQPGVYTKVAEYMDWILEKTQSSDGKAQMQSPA

Work on MHL(Lanadelumab) (antibody) yielded an IC50(nM), PK activity in human plasma activated with Factor XIIa (H-Pro-Phe-Arg-AMC) of 1.17 nM and an IC50(nM), PK enzyme activity on H-Pro-Phe-Arg-AMC (fluorescence) of 0.99 nM.
